Target: T1, PAP1 R2R3-MYB domain (UniProt Q9FE25 1-178)
T1 sequence: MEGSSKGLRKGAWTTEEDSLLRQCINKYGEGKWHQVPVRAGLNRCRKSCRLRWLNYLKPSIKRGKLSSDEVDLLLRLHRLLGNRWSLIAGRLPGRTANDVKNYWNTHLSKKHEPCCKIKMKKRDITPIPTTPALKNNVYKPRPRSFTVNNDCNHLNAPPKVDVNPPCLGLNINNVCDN
Assay: EMSA

B1: NtPMT2 MRE-like probe (dsDNA)
DNA 1: CCAACAACCGCGCCAACAACCGCGCCAACAACCGCG
DNA 2: CGCGGTTGTTGGCGCGGTTGTTGGCGCGGTTGTTGG
  binding result: no binding

Source: article PMC9039656
